Laboratory results from paper PMC10836093, “Ensemble-based design of tau to inhibit aggregation while preserving biological activity” (Research Square, 2024).

Target: the molecule itself
Test: ThT fluorescence aggregation assay; peptide alone, 50-800 μM in 1X PBS pH 7.4, 1 mM DTT, 25 μM ThT, 37 °C, no inducer; self-assembly into amyloid fibrils, t1/2max from fitted curves

Protein	t1/2max of ThT aggregation at 800 μM	t1/2max of ThT aggregation at 100 μM
Ac-KDNIKHVPGGGSVQIVYK-NH2 (also called 4R-derived peptide; source: synthetic peptide (Genscript, >95% purity), disaggregated in TFA) [WT R2R3_(294-311) peptide]	46 ± 13 h	
Ac-KDNIKHVSGGGSVQIVYK-NH2 (also called mutant 4R fragment; source: synthetic peptide (Genscript, >95% purity), disaggregated in TFA) [P301S R2R3_(294-311) peptide]	7.5 ± 1 h	52 ± 14 h
